Measured values from patent publication US10434147B2, “Treatment type 2 diabetes mellitus patients” (Sanofi-Aventis Deutschland GmbH, priority 2015, dated 2019).

Tests used:
[1] = test system: Patients with Type 2 Diabetes Insufficiently Controlled with Insulin Glargine with or without Metformin; assay: Treatment-emergent adverse events, 26-week study; type: in vivo, human; settings: in vivo
Source text: (§1) FIG. 6—Graphical study design. ^1 Insulin glargine should be injected subcutaneously once daily at dinner or breakfast time (according to patient's/investigators' preference). […] Meal used for insulin glulisine dosing should remain the same throughout the 26-week treatment period. ^4 Injection of insulin glulisine prior to breakfast, lunch and dinner.
(§2) Co-primary endpoints at 26 weeks were (1) non-inferiority (95% CI upper bound <0.4%) in HbA1c reduction with LIXI vs GLU-1 and (2) for LIXI vs GLU-3, either non-inferiority in HbA1c reduction (2a) OR superiority (one-sided α≤0.025) in body weight change (2b). FPG, PPG, IG dose, composite outcomes, AEs, and hypoglycemia were assessed.

[2] = test system: Patients with Type 2 Diabetes Insufficiently Controlled with Insulin Glargine with or without Metformin; set-up: species or system human; settings: in vivo
Source text: Clinical symptoms that are considered to result from a hypoglycemic episode are, e.g., increased sweating, nervousness, asthenia/weakness, tremor, dizziness, increased appetite, palpitations, headache, sleep disorder, confusion, seizures, unconsciousness, coma.
as §2

[3] = test system: Patients with Type 2 Diabetes Insufficiently Controlled with Insulin Glargine with or without Metformin; assay: Body weight, 26-week study; type: in vivo, human
Source text: as §1, §2

[4] = Baseline (before IMP), mITT population
[5] = Week 26 (LOCF), mITT population

Insulin Glulisine QD: insulin glulisine once daily, added to insulin glargine ± metformin (comparator arm)
266.4 per 100 patient years: Any symptomatic hypoglycemia: Number of events per 100 patient years [2]
89.31 (16.27) kg: Body weight, Week 26 (LOCF), Mean (SD) [3, 5]
0.90 kg: Body weight, Change from baseline to Week 26 (LOCF), Median ([3]; mITT population)
78.9 per 100 patient years: Any symptomatic hypoglycemia: Number of patients with events per 100 patient years [2]
1.0 ± 0.3 kg: Body Weight, LS mean ± SE change from BL ([3]; Week 26, mITT, Example 2 table)
2.6 events/pt years: Documented Symptomatic Hypoglycemia at Week 26, No. of events/pt years [2]
0.94 (2.50) kg: Body weight, Change from baseline to Week 26 (LOCF), Mean (SD) ([3]; mITT population)
0 n (%): Patients with treatment emergent SAE: Penile infection [1] | Patients with treatment emergent SAE: Renal and urinary disorders (SOC) [1] | Patients with treatment emergent SAE: Renal failure [1] | Patients with treatment emergent SAE: Renal failure acute [1] | Patients with treatment emergent SAE: Septic arthritis staphylococcal [1] | Patients with treatment emergent SAE: Skin and subcutaneous tissue disorders (SOC) [1] | Patients with treatment emergent SAE: Skin ulcer haemorrhage [1] | Patients with treatment emergent SAE: Uterine cancer [1] | Patients with treatment emergent SAE: Vascular disorders (SOC) [1] | TEAE leading to permanent treatment discontinuation: Abdominal pain [1] | TEAE leading to permanent treatment discontinuation: Ascites [1] | TEAE leading to permanent treatment discontinuation: Blood and lymphatic system disorders (SOC) [1] | TEAE leading to permanent treatment discontinuation: Cardiac disorders (SOC) [1] | TEAE leading to permanent treatment discontinuation: Cardiac failure chronic [1] | TEAE leading to permanent treatment discontinuation: Cough [1] | TEAE leading to permanent treatment discontinuation: Decreased appetite [1] | TEAE leading to permanent treatment discontinuation: Dehydration [1] | TEAE leading to permanent treatment discontinuation: Diabetic bullosis [1] | TEAE leading to permanent treatment discontinuation: Diarrhoea [1] | TEAE leading to permanent treatment discontinuation: Dyspepsia [1] | TEAE leading to permanent treatment discontinuation: Epigastric discomfort [1] | TEAE leading to permanent treatment discontinuation: Gastric ulcer haemorrhage [1] | TEAE leading to permanent treatment discontinuation: Gastrointestinal disorders (SOC) [1] | TEAE leading to permanent treatment discontinuation: Headache [1] | TEAE leading to permanent treatment discontinuation: Hepatic mass [1] | TEAE leading to permanent treatment discontinuation: Hepatobiliary disorders (SOC) [1] | TEAE leading to permanent treatment discontinuation: Hot flush [1] | TEAE leading to permanent treatment discontinuation: Hypoglycaemia [1] | TEAE leading to permanent treatment discontinuation: Immune system disorders (SOC) [1] | TEAE leading to permanent treatment discontinuation: Invasive ductal breast carcinoma [1] | TEAE leading to permanent treatment discontinuation: Lymphadenopathy [1] | TEAE leading to permanent treatment discontinuation: Metabolism and nutrition disorders (SOC) [1] | TEAE leading to permanent treatment discontinuation: Metastases to liver [1] | TEAE leading to permanent treatment discontinuation: Metastases to peritoneum [1] | TEAE leading to permanent treatment discontinuation: Nasal congestion [1] | TEAE leading to permanent treatment discontinuation: Nausea [1] | TEAE leading to permanent treatment discontinuation: Neoplasms benign, malignant and unspecified (incl cysts and polyps) (SOC) [1] | TEAE leading to permanent treatment discontinuation: Pancreatic carcinoma metastatic [1] | TEAE leading to permanent treatment discontinuation: Renal and urinary disorders (SOC) [1] | TEAE leading to permanent treatment discontinuation: Renal failure [1] | TEAE leading to permanent treatment discontinuation: Respiratory, thoracic and mediastinal disorders (SOC) [1] | TEAE leading to permanent treatment discontinuation: Seasonal allergy [1] | TEAE leading to permanent treatment discontinuation: Skin and subcutaneous tissue disorders (SOC) [1] | TEAE leading to permanent treatment discontinuation: Skin ulcer haemorrhage [1] | TEAE leading to permanent treatment discontinuation: Thrombosis [1] | TEAE leading to permanent treatment discontinuation: Vascular disorders (SOC) [1] | TEAE leading to permanent treatment discontinuation: Vomiting [1] | Total number of patients with any event adjudicated as pancreatitis by PSAC [1]
1.03 (0.276) kg: Body weight, Change from baseline to Week 26 (LOCF), LS Mean (SE) ([3]; ANCOVA, mITT population)
384: Documented Symptomatic Hypoglycemia at Week 26, No. of events [2]
1 (0.3%) n (%): TEAE leading to permanent treatment discontinuation: Blood glucose decreased [1] | TEAE leading to permanent treatment discontinuation: Investigations (SOC) [1] | TEAE leading to permanent treatment discontinuation: Nervous system disorders (SOC) [1] | TEAE leading to permanent treatment discontinuation: Tremor [1]
2: Severe Hypoglycemia, no. of pts with events [2]
89.3 ± 16.3 kg: Body Weight, Week 26 (LOCF) mean ± SD ([3]; Week 26 (LOCF), mITT, Example 2 table)
88.4 ± 15.9 kg: Body Weight, BL mean ± SD ([3]; BL, mITT, Example 2 table)
395: Any symptomatic hypoglycemia: Number of events [2]
−1.66 (0.305) kg: Body weight change to Week 26, LS Mean difference (SE) of Lixisenatide vs. the labelled insulin glulisine arm ([3]; ANCOVA, mITT population, p <.0001)
-1.7 kg: Body Weight, LS mean treatment difference (lixisenatide vs the labelled arm) ([3]; Week 26, mITT, p < 0.0001, Example 2 table)
88.37 (15.88) kg: Body weight, Baseline, Mean (SD) [3, 4]
2 (0.7%) n (%): TEAE leading to permanent treatment discontinuation: Any class [1]
88.00 kg: Body weight, Baseline, Median [3, 4]
88.40 kg: Body weight, Week 26 (LOCF), Median [3, 5]
37.5 (p = 0.144) % pts: Documented Symptomatic Hypoglycemia at Week 26, % pts [2]
